The results in this text go back to the DeepSol protein solubility set.

This data set can be described thus: soluble on expression in E. coli; label from the status in PepcDB or PDB records.
With “MGHHHHHHSHLSPEPPVYSLQDFDTLATVGTGTFGRVHLVKEKTAKHFFALKVMSIPDVIRLKQEQHVHNEKSVLKEVSHPFLIRLFWTWHDERFLYMLMEYVPGGELFSYLRNRGRFSSTTGLFYSAEIICAIEYLHSKEIVYRDLKPENILLDRDGHIKLTDFGFAKKLVDRTWTLCGTPEYLAPEVIQSKGHGRAVDWWALGILIFEMLSGFPPFFDDNPFGIYQKILAGKIDFPRHLDFHVKDLIKKLLVVDRTRRLGNMKNGANDVKHHRWFRSVDWEAVPQRKLKPPIVPKIAGDGDTSNFET”, the “soluble on expression in E. coli” value is listed as “not soluble”. As for “MVQNDETQYIARILDGDTECFSAFLDRYSRPLYVLIVQIVGCSEDAEELVQDVFLKAFRCLGSYRGECRFSTWLYRIAYTTAVSATRKKKQEFLYIEENTINNVPDEKADDILYPTDDEERTARLIQAIDLLNVEEKALITLFYYEEKSIEEIGEVLKLSPGNVKVKLHRTRKKIYVLMNGKE”, the entry is “not soluble”. With “MKTVYLTIDDGPSKDRKEKVDILYQYGIQPIWFCIGSEIEKRPEDVIYSIRKGGIIGNHSYSHPRFSQISLEECFEEIEKTDRIIDSIYREAGVARPIKAFRFPYGDKGEDNNFFKKPYSEEGKKKISKIMTFLKELGYTKPKFDGITYEYYSKFGLKDDIDWYWTYDVAEWCTFQEKPMFGVRTIDDVFELMELDLPEKWAGLNYPYSDDIILMHDHPQTTPLFKPIICQLLKKGLHFGAIPLE”, the “soluble on expression in E. coli” value is on record as “soluble”. Next, “MRAVFRTDIGQIREHNEDSGGVFVNQSGQYLAVVADGMGGHRAGDVASSMAVAYLQERWEKESSLASPAEAEQWLKTQIAAANEQLFRHACSHPECQGMGTTVVAAVCANSFATVAHIGDSRCYVLNKSGIQQLTDDHSLVNELVKSGQLSKEAAEHHPRKNVLLRALGTEPAVKIDVKTVALDEGDMLLLCSDGLSNKVPEADMIHILTGAGTLEEKAEALIQLANGRGGEDNISLAVIDVSAEREGG”: “soluble”; “MGSDKIHHHHHHMSKVVKFGGSSVANSEQFKKVKQIILADPDRKYVVTSACGKSGQEDHKVTDLLYLCAAHITYDVSYESIFQSIVDKYMEIKRSLGLKIDLAGEFAKIRQNMAQNLNLDYLVSRGEYLTGLCLAEYLDADFRDASQVIRFHYDGSIDLDKSQELLKAQVDPGRRVVIPGFYGSLPNGVIKVMSRGGSDITGSIVANAFDVDVYENWTDVSGFYVADPRIIKDPVQIPRVTYSELRQMSYMGANVLHDDAVFPVRQKNIPINVRNTNHPENPGTMIMNDCSELDAQERPHVITGITGKQDFTVITMVKSHVSAEAGFLRKVLAVFEKFQISIESVPVTVDTFSIVVQTKKIERYLYEIVAELQQDLHLDDIQVESQQAMLAVVGRAMRQMPGMSGKILSTLGDQQINIRTINQACDEQSIVIGVNNQDLVPAIKAIYQQFISEERVER”: “not soluble”; “MAHHHHHHMHTDDKQAQRYPRTSDAARVHSTLRVGQNTSDKVPYGRLSSQSGPGTPRGDLFPPSNGLSKVEGEETPAAGAWQYPSEPMATPNTRSVQLNGALPVKNEEGETKCSGDAIREEGTKDGGDGVIIGIDAAVEAGVLVANEESGKEDENRESNVNSTPCASGTNETIATATPTLSNATAASVVLTPAVPASTGLRASRRLLDFTGSTNVSNGPRAASRLFDVKPVGGGAQAASQGVGFLRLSKTVPSAASQAVSARMRTSRKNGPTLSATSRGHSSTAHENLPCRNDYTSLRLKEQRRRELYAWNEELRRQDKSDMSADAV”: “not soluble”. Turning to “MGHHHHHHSHIAELYGAVLWGETVHLFMEAGEGGSVLEKLESCGPMREFEIIWVTKHVLKGLDFLHSKKVIHHDIKPSNIVFMSTKAVLVDFGLSVQMTEDVYFPKDLRGTEIYMSPEVILCRGHSTKADIYSLGATLIHMQTGTPPWVKRYPRSAYPSYLYIIHKQAPPLEDIADDCSPGMRELIEASLER”, the “soluble on expression in E. coli” value was “not soluble”.

Regarding “VKSNKGFEAIAWDPLRQRLIIGEERPPKLYTWNTDGRSPLKGEKQPLPSDELDLRNLSALGVDPRTGHLLVLSADSNMLLELDEQGQQVSFMTLLGGFNGLE”, the “soluble on expression in E. coli” value is on record as “not soluble”. Next, “MRVAFCLYKYFPFGGLQRDFMRIAQTVAARGHQVRVYTQSWEGECPDNFELIRVPVKSRTNHGRNAEYYAWVQHHLRDHPVDRVVGFNKMPGLDVYYAADVCYAEKVAQEKGFFYRLTSRYRHYAAFERATFEHGKPTQLLMLTNKQIADFQKHYQTEAERFHILPPGIYPDRKYSQQIPNSRQIYRQKNGISEQQKLLLQVGSDFTRKGVDRSIEALASLPESLRQNTVLYVVGQDKPKKFAALAERSGVGTNVHFFSGRNDIAELMAAADLLLHPAYQEAAGIVLLEAITAGLPVLTTAVCGYAHYIVDANCGEAMTEPFRQDALNEVLLKALTQPSLRNAWAENARYYADTQDLYSLPEKAADIITGDLDG”: “not soluble”; “SHMLEDPCTSKKVRAARTLLAKNLSFNITEDELKEVFEDALEIRLVSQDGKSKGIAYIEFKSEADAEKNLEEKQGAEIDGRSVSLYYTGEKGGTRG”: “soluble”; “GMQTPALIIVTGHPATGKTTLSQALATGLRLPLLSKDAFKEVMFDGLGWSDREWSRRVGATAIMMLYHTAATILQSGQSLIMESNFRVDLDTERMQNLHTIAPFTPIQIRCVASGDVLVERILSRIAQGARHPGHCDDRSPADLELVRSRGDIPPLPLGGPLLTVDTTFPEQIDMNAIVQWVRQHLQSGTAFL”: “soluble”. As for “MSVEASRTCFLIDSLLNKKPKEELETEEEDEEEDEEEELSSSEVTSENDMETESASSSASSVGQPKPDFSAFHKIFSNLDFAKLAAVKRNGHHQPMLFRPECFFPLELSKHLHLVQQTFQMNVLQNLGHTLPLPFVPMLKNVAPAQKRLNNKRASYVDHSQKGNLKKYRCDVCDKTFSRSNTLITHKRIHTGEKPFKCEHCGRAFRQPGNLTRHRLTHTTVKPYVCGLCDKAFNRASNLHTHMRTHTNV”, the entry is “not soluble”. Next, “MSLVPRVMSTQHPDNARIPFFAASEVLNGEDEVREAYYVFSHFKCDEQMWDFEGKEADAHIVRKLLSSYYDFFSSRPLGKDFRLTMRVPNPEIEKGEAKLLAETLEMIPRSYDYVRSLGIEHPPIFEVILPMTRSAEEVMKVHAFYRDFVAGKGRFELLGEKVSDWLGDFLPEEIKVIPLFEDRDSLMRAAEISERYAEWAELDELRVFLARSDPAMNYGFVAATIYVKKALYDLSQLGISTYPILGVGSCPFRGGFSPKNLSVLDEFPSVYTFTVQSAFKYDYEFGDVRRAIKRAKEAARRKSDYVDEEHLQVAEKLKDGYRRRIAKIAEIVNRISSRIPRRRMRKLHVGLFGYSRGEEIKLPRAITFCASLYSIGLPSEIIGIAEMSDKDYEAVCEVFKNFDGMMESAMSLFNPESLKIVDLSMDFERAKELFGYEPDERHLEKTNEIIKQIDGDIKNLVVEAGILRGFLGEGHHHHHH”: “not soluble”. As to “GGTAYWKNPDQFTAFNTGLHALLREKSYNFFLLGEPRADIYGDNPIGGEASQGMERLPFNTINKENVGISNYGDMYKIINQINQMIAKTTETTILTEATQNYYLGEAYGMRAYLYFHLLRSWGDVVLYLDYTEGQNLDLSNITKGVSPATEVMEQIKKDIQASENAFGSDYSFKLGRHFWSAAATQMLKGEAYLWSGRQMNGGNSDYTIAKNAFENVKKADVGLVTSSFKDIFSFENKKNKEMIFTIHNGKDEYEMWGGYYRMRLIPAQDKMVKIYCDENGNSFVGTPDAQLNGLTQLQVRREFYFKGFRNNDTRWTTSLKAVYKKDAQGVVSYFGPITYKFQGTMLEGGSTRSFLDDFPIYRYADCLLQLAMAKVLLGEDPTEEINAVRERAYGSKYFNEHKAEIAYPNDNDPEFYTDNKWMKPDNAGALEAILKERLREFMFEGKRWYDIRLLGWDYVHQYSSAEQSRLLWPIDAGTLTNNSALKQTPGYE”, the “soluble on expression in E. coli” value is on record as “soluble”. Next, “MGSDKIHHHHHHMENLIFDIGFHKGEDTLFYLLKGYRVIAVDADPDLINEWQNIFKKYIENGKLLLLNYVISDTNDVDTDFYIGPNTIWSSTKVSISSRMCCKAIKKKIKSKRLDHLFHEYGTPFYCKIDIEGNDIIALQTMEKVSEKPLYISVETECIGEDEDIAGHELDTLNALYQLGYRKFKLVDQRTLTVLDYNCFYKNNSEHNWFEQIETNCKYAEELIVLSDTDQRVKFTDFFPGSSGPFGEELAGKWYDYPQAKEMLKKHREDKMRLNEPAWTFWCDWHATF”: “not soluble”.
